Consider four molecules from patent publication US20230235004A1 (published 2023).

For one assay, the target named is T1, human MAdCAM protein (human, UniProt Q13477 19-317, limits assumed).
T1 construct: also called soluble monomeric human MAdCAM; recombinant human MAdCAM
T1 sequence (looked up): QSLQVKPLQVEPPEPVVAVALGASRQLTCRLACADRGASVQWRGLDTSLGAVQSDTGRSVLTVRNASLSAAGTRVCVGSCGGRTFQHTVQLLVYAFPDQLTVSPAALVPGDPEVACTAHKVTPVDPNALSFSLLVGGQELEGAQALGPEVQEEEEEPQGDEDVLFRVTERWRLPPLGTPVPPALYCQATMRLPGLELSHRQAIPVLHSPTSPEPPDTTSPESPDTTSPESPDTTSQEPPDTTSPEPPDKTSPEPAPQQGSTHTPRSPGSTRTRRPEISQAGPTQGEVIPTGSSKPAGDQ
The experiment in a line: Octet.

Assay [1] concerns the target T2, recombinant mouse MAdCAM-1 (mouse, UniProt Q61826 22-364, limits assumed).
T2 construct: also called mMAdCAM-1
T2 sequence (looked up): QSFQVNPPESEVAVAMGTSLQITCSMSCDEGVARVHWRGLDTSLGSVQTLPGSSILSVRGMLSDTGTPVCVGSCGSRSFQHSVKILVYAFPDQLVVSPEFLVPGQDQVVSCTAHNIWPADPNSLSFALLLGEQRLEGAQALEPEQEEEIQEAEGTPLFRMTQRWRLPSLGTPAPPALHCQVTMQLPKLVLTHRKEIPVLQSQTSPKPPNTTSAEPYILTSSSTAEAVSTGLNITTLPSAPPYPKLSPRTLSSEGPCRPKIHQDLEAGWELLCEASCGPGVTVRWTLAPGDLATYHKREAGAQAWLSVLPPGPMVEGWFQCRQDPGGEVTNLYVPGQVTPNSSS
Briefly: Octet.

Assay [2] deals with T3, human MAdCAM expressed on cells (human, UniProt Q13477 19-382).
T3 construct: whole, on cells
T3 sequence (looked up): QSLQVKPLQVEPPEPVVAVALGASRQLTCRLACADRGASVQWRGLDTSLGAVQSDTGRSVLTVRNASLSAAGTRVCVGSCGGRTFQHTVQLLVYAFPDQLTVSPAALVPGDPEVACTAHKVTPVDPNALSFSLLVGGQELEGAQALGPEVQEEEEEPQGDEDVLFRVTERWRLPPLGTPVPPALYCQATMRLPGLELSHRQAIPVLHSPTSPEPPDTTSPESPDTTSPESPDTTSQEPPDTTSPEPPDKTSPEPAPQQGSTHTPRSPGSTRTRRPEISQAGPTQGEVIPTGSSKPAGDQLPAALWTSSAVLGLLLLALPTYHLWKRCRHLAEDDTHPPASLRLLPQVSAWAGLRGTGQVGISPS
Briefly: cell binding.

For assay [3], the target named is T4, mouse MAdCAM expressed on cells (mouse, UniProt Q61826 22-405).
T4 construct: whole, on cells
T4 sequence (looked up): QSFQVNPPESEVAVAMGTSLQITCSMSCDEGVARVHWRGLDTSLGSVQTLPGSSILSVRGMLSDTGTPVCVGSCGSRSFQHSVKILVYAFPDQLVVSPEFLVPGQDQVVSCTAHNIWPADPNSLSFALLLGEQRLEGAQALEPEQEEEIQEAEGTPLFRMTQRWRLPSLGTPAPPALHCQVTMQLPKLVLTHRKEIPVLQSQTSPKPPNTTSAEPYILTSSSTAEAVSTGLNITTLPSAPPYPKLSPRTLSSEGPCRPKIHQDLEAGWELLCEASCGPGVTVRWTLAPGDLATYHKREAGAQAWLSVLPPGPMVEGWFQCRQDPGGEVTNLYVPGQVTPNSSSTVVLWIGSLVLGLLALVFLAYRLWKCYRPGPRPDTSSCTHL
Briefly: cell binding.

B1: MAdCAM antibody Table 1 clone 2 (scFv)
scFv: QVQLVQSGAEVKKPGASVKVSCKASGYPFIGYYLHWVRQAPGQGLEWMGIINPSGGSTSYAQKFQGRVTMTRDTSTSTVYMELSSLRSEDTAVYYCAREGRLSYGMDAWGQGTLVTVSSGGGGSGGGGSGGGGSGGGGSDIQMTQSPSSLSASVGDRVTITCRASQSISSYLAWYQQKPGKAPKLLIYGASTLESGVPSRFSGSGSGTDFTLTISSLQPEDFATYYCQQTWGPPFTFGQGTKLEIK
B1: the binding result (in the assay with human MAdCAM protein; in assay [1]; in assay [2]; in assay [3]) was “binds” each time.

B2: MAdCAM antibody Table 1 clone 5 (scFv)
scFv: EVQLLESGGGLVQPGGSLRLSCAASGFTFSSYWMHWVRQAPGKGLEWVSSISPGGSNIDYADSVKGRFTISRDNSKNTLYLQMNSLRAEDTAVYYCAREVQLSHYDYWGQGTLVTVSSGGGGSGGGGSGGGGSGGGGSDIQMTQSPSSLSASVGDRVTITCRASQGISNSLAWYQQKPGKAPKLLIYGASSLQSGVPSRFSGSGSGTDFTLTISSLQPEDFATYYCQQANSFPFTFGQGTKVEIK
On to B2, for which the binding result (in the assay with human MAdCAM protein; in assay [1]; in assay [2]; in assay [3]) was “binds” throughout.

B3: MAdCAM antibody Table 1 clone 6 (scFv)
scFv: EVQLLESGGGLVQPGGSLRLSCAASGFTFNNYAFHWVRQAPGKGLEWVSRINSYGTSTTYADSVKGRFTISRDNSKNTLYLQMNSLRAEDTAVYYCAREGPVAGYWYFDLWGQGTLVTVSSGGGGSGGGGSGGGGSGGGGSDIQMTQSPSSLSASVGDRVTITCRASQIIGTNLAWYQQKPGKAPKLLIYGASSLQSGVPSRFSGSGSGTDFTLTISSLQPEDFATYYCQQSYRLPFTFGQGTKVEIK
As for B3, the binding result with human MAdCAM protein was “binds”; in assay [1], “no binding”; in assay [2] it was “binds”; in assay [3], “no binding”.

B4: MAdCAM antibody Table 1 clone 4 (scFv)
scFv: QVQLVQSGAEVKKPGASVKVSCKASGGTFSSYAISWVRQAPGQGLEWMGSINPSGDTTSYAQKFQGRVTMTRDTSTSTVYMELSSLRSEDTAVYYCAKDKAQWLVGYFDYWGQGTLVTVSSGGGGSGGGGSGGGGSGGGGSDIQMTQSPSSLSASVGDRVTITCQASQDISNSLNWYQQKPGKAPKLLIYAASSLQSGVPSRFSGSGSGTDFTLTISSLQPEDFATYYCQQSYSSVITFGQGTKVEIK
Consider B4, for which the binding result (with human MAdCAM protein; in assay [1]; in assay [2]; in assay [3]) was “binds” throughout.
